Experimental data from publication PMC7473174 (Cell reports, 2020).

Molecular target: GST-(TEV)-ZGRF1-(His)6 (human, UniProt Q86YA3 1-2104)
Test: pull-down

Chain of GST-(TEV)-ZGRF1-(His)6 (Q86YA3 whole entry): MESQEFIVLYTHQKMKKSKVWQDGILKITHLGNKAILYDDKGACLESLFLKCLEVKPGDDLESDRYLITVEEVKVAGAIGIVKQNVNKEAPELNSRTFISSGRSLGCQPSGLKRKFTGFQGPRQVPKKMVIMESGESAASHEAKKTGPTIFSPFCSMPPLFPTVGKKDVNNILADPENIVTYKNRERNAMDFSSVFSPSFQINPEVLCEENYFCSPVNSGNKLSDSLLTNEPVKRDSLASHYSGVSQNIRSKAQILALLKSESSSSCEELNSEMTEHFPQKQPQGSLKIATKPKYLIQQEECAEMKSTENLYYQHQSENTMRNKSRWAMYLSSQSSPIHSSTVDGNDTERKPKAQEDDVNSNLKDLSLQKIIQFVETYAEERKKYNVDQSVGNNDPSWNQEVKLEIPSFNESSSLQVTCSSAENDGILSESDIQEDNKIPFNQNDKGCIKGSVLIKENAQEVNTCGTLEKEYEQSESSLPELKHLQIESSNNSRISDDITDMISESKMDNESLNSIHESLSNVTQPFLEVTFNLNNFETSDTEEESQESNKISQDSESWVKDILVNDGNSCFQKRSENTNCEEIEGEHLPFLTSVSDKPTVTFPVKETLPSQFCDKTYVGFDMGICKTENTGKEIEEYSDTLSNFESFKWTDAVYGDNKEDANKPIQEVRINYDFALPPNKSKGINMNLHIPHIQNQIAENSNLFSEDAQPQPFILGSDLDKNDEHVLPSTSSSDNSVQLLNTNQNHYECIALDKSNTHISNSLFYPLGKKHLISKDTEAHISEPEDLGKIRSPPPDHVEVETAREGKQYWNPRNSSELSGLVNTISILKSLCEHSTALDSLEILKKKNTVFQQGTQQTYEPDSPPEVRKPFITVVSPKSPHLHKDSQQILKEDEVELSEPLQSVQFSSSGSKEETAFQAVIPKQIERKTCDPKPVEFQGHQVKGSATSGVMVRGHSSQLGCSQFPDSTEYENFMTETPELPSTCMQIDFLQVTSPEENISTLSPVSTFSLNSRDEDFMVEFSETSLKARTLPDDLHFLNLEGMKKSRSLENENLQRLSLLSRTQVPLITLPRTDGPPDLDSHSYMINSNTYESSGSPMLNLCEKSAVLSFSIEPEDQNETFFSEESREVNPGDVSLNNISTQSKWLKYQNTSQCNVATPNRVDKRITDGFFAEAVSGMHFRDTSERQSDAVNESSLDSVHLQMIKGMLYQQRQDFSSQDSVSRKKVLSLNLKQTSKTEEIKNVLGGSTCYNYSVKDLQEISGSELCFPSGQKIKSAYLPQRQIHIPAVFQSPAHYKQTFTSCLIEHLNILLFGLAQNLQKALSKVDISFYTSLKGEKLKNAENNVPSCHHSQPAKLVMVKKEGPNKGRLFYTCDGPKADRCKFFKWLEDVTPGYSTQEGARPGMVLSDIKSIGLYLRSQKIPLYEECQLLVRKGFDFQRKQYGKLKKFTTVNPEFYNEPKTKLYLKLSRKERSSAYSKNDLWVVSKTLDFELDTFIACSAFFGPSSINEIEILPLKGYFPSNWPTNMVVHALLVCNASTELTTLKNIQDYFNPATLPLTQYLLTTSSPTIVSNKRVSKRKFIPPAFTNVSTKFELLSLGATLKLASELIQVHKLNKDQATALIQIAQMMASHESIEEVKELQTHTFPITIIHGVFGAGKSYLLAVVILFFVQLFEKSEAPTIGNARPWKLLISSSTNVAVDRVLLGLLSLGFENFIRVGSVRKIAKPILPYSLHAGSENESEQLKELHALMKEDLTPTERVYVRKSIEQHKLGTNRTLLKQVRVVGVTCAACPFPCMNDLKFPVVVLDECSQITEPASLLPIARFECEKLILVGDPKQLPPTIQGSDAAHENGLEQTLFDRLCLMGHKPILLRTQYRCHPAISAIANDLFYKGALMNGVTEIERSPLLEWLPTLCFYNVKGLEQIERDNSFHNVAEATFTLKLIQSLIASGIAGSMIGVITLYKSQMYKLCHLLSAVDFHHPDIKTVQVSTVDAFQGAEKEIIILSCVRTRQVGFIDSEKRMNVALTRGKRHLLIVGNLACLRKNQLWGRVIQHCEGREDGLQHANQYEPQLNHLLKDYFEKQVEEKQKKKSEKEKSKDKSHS

binding result: binds
B1: human RAD51 (natural protein, UniProt Q06609 1-339, looked up)
chain: MAMQMQLEANADTSVEEESFGPQPISRLEQCGINANDVKKLEEAGFHTVEAVAYAPKKELINIKGISEAKADKILAEAAKLVPMGFTTATEFHQRRSEIIQITTGSKELDKLLQGGIETGSITEMFGEFRTGKTQICHTLAVTCQLPIDRGGGEGKAMYIDTEGTFRPERLLAVAERYGLSGSDVLDNVAYARAFNTDHQTQLLYQASAMMVESRYALLIVDSATALYRTDYSGRGELSARQMHLARFLRMLLRLADEFGVAVVITNQVVAQVDGAAMFAADPKKPIGGNIIAHASTTRLYLRKGRGETRICKIYDSPCLPEAEAMFAINADGVGDAKD
